Test results as given in the supplement of paper PMC9170038.

Tested on: MS2 coat protein
Assay: apparent KD of MS2 coat protein; designed switch direction (-1 OFF switch, 1 ON switch): 1; higher = weaker reporter binding
How it was run: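 Three titration conditions were used: no input, 200 uM small-molecule ligand, and an oligonucleotide input. In each, SNAP-549-labelled MS2 coat protein was raised from 0.7 or 1.5 nM, doubling, to 3 µM over designed RNA switches transcribed on Illumina chips by stalled E. coli RNA polymerase. Curve fits of normalised cluster fluorescence gave values whose per-design median over clusters is the apparent KD.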

[1] = Eterna round: R95, input ligand: FMN 200 uM
[2] = Eterna round: R95, input ligand: microRNA oligo, concentration not stated
[3] = Eterna round: R95, input ligand: none
[4] = input ligand: microRNA oligo, concentration not stated

Sequence	apparent KD of MS2 coat protein [1]	apparent KD of MS2 coat protein [2]	apparent KD of MS2 coat protein [3]	apparent KD of MS2 coat protein [4]	apparent KD of MS2 coat protein (input ligand: FMN 200 uM)	apparent KD of MS2 coat protein (input ligand: none)
AUUAAACAUGAGGAUCACCCAUGUCAACAAAGUCGAGGAUAUGGGCAAAUAAAAUAAUAACCAGAAGGCGAAUAAU [salish99_ss1_r3_065] (puzzle: Same State 1)	37.8 nM	353 nM	295 nM	–	–	–
AUUAAACAUGAGGAUCACCCAUGUCAACAAAGUCGAGGAUAUGGGCUAAUAAAAUAAGAACCAGAAGGCGAAUAAU [salish99_ss1_r3_062] (puzzle: Same State 1)	26.8 nM	185 nM	211 nM	–	–	–
AUUAAUAAUCGAGGAUAUCACGUCGAAUAGACGUGAGAAGGCGAUCAUAACAUGAGGAUCACCCAUGUAUUACAUGAAGUUAAU [SSNG1/4-B1] (Eterna round: R96, puzzle: Same State NG 1)	–	–	–	20 nM	–	–
AUUAAUUAAUUAAUACAUGAGGAUCACCCAUGUAAUAAGAUCUAGGAUAUCAGCUCGAUUAGAGCUGAGAAGGAGAUCACAUGU [SSNG3/17-A2] (Eterna round: R96, puzzle: Same State NG 3)	–	–	–	36.3 nM	–	–
AUUACUAACAUAGGAUAUCAUGCGAAAAUUGCGUGAGAAGGGUGGACGCUGUCAUUCUCGGAGGACAUGAGGAUCACCCAUGUC [SameState NG1 #71] (Eterna round: R96, puzzle: Same State NG 1)	–	–	–	103 nM	118 nM	90.7 nM
AUUAGUUAUGCAGGAUAUGAUUAACAUGAGGAUCACCCAUGUGGUGUUGUGAGUAAGGAGAGUGAUCAGAAGGGCAUUUUUUUU [JMF's solution 67] (Eterna round: R96, puzzle: Same State NG 2)	–	–	–	264 nM	462 nM	644 nM
AUUAUACAUGAGGAUCACCCAUGUCAACGUAGUCGAGGAUAUGGGCAGCCGUGAGGCGUACUAGAAGGCGAAGAGA [Mat - Same State 1 - Mod of JL - D8] (puzzle: Same State 1)	84.3 nM	235 nM	385 nM	–	–	–
AUUAUGAAUGCAGGAUAUGAUUAACAUGAGGAUCACCCAUGUGGUGUUGUGAGUAAGGAGAGUGAUCAGAAGGGCAUUUUUUUU [JMF's solution 25] (Eterna round: R96, puzzle: Same State NG 2)	–	–	–	465 nM	–	–
AUUAUUAAUAUAGGAUAUGUAAAACAUGAGGAUCACCCAUGUGAUAUCGUGAGUAAGGAGAGAGAACAGAAGGAUAUUUUUUUU [JMF's solution 3] (Eterna round: R96, puzzle: Same State NG 2)	–	–	–	30.5 nM	40.6 nM	43.3 nM
AUUAUUAAUGCAGGAUAUGAUUAACAUGAGGAUCACCCAUGUGGUGUUGUGAGUAAGGAGAGUGAUCAGAAGGGCAUAUUUUUU [JMF's solution 9] (Eterna round: R96, puzzle: Same State NG 2)	–	–	–	407 nM	668 nM	625 nM
AUUAUUAAUGCAGGAUAUGAUUAACAUGAGGAUCACCCAUGUGGUGUUGUGAGUAAGGAGAGUGAUCAGAAGGGCAUUUUUUAU [JMF's solution 15] (Eterna round: R96, puzzle: Same State NG 2)	–	–	–	387 nM	959 nM	1190 nM
AUUAUUUAUGCAGGAUAUGAUUAACAUGAGGAUCACCCAUGUGGUGUUGUGAGUAAGGAGAGUGAUCAGAAGGGCAGUUUUUUU [JMF's solution 43] (Eterna round: R96, puzzle: Same State NG 2)	–	–	–	231 nM	568 nM	406 nM
AUUAUUUAUGCAGGAUAUGAUUAACAUGAGGAUCACCCAUGUGGUGUUGUGAGUAAGGAGAGUGAUCAGAAGGGCAUCUUUUUU [JMF's solution 44] (Eterna round: R96, puzzle: Same State NG 2)	–	–	–	227 nM	610 nM	414 nM
AUUCGUUUGAUAGGAUAUCACUUUACAUGAGGAUCACCCAUGUUCACCACGCUGGUCUCUUAUACUGAGAAGGAUCUUGAUGAC [JR_SSNG2_Sub009] (Eterna round: R96, puzzle: Same State NG 2)	–	–	–	18.8 nM	22.9 nM	28 nM
AUUGCUAUCACAGGAUAUCAUGCGAAAAUUGCGUGAGAAGGGUGGACUCUGUCAUUCACGGAGGACAUGAGGAUCACCCAUGUC [SameState NG1 #81] (Eterna round: R96, puzzle: Same State NG 1)	–	–	–	15.5 nM	1020 nM	32.3 nM
AUUGCUUUCGCAGGAUAUGAUGCGAAAAUUGCGUCAGAAGGGUGGAGUCUCUCAUUGCAAGAGGACAUGAGGAUCACCCAUGUC [SameState NG1 #86] (Eterna round: R96, puzzle: Same State NG 1)	–	–	–	245 nM	177 nM	322 nM

Sequence	apparent KD of MS2 coat protein [1]	apparent KD of MS2 coat protein [2]	apparent KD of MS2 coat protein [3]	apparent KD of MS2 coat protein [4]	apparent KD of MS2 coat protein (input ligand: FMN 200 uM)	apparent KD of MS2 coat protein (input ligand: none)
AUUUAACAAGCUUUUUGCUCGUCUUAUAAACAUGAGGAUCACCCAUGUAAUAGCGUGAGAGUAAUUAAUUAAAUAAU [JMF 90] (puzzle: Sensor for hsa-mir-208a)	14.6 nM	46.9 nM	13.3 nM	–	–	–
AUUUAACAAGCUUUUUGCUCGUCUUAUAAACAUGAGGAUCACCCAUGUAAUAGCGUGAGAGUAAUUUAAUAAAUAAU [JMF 84] (puzzle: Sensor for hsa-mir-208a)	13.7 nM	51.1 nM	13.4 nM	–	–	–
AUUUAACAAGCUUUUUGCUCGUCUUAUAAACAUGAGGAUCACCCAUGUAAUAGCGUGAGAGUAAUUUAUUAAAUAAU [JMF 92] (puzzle: Sensor for hsa-mir-208a)	15.6 nM	41 nM	15.6 nM	–	–	–
AUUUAACAUGAGGAUCACCCAUGUCAACAAAGUCGAGGAUAUGGGCAAAUAAAAUAAGAACCAGAAGGCGAAUAAU [salish99_ss1_r3_070] (puzzle: Same State 1)	40.5 nM	283 nM	368 nM	–	–	–
AUUUGGUAACGAGGAUAUCGUUUUUGUUUUCUUCGAGAAGGCGUUAUUGUUUAUUUCUAUUGUUACAUGAGGAUCACCCAUGUU [JR_SSNG1_Sub056] (Eterna round: R96, puzzle: Same State NG 1)	–	–	–	19 nM	15.4 nM	21.7 nM
AUUUUAAAACAUGAGGAUCACCCAUGUUACAAGCUUUUUUUUUUUUUUUUUUUUUGGUGAUCCUCAGCUCGUCUUAU [lrlee 1] (puzzle: Sensor for hsa-mir-208a version 2)	1.51 nM	5.16 nM	0.902 nM	–	–	–
AUUUUGAAUGCAGGAUAUGAUUAACAUGAGGAUCACCCAUGUGGUGUUGUGAGUAAGGAGAGUGAUCAGAAGGGCAUUUUUUUU [JMF's solution 96] (Eterna round: R96, puzzle: Same State NG 2)	–	–	–	452 nM	599 nM	445 nM
AUUUUUAAUGCAGGAUAUGAUUAACAUGAGGAUCACCCAUGUGGUGUUGUGAGUAAGGAGAGUGAUCAGAAGGGCAAUUUUUUU [JMF's solution 78] (Eterna round: R96, puzzle: Same State NG 2)	–	–	–	226 nM	731 nM	433 nM
AUUUUUAAUGCAGGAUAUGAUUAACAUGAGGAUCACCCAUGUGGUGUUGUGAGUAAGGAGAGUGAUCAGAAGGGCAUCUUUUCA [SS-NG2-LRO02] (Eterna round: R96, puzzle: Same State NG 2)	–	–	–	216 nM	679 nM	372 nM
AUUUUUAAUGCAGGAUAUGAUUAACAUGAGGAUCACCCAUGUGGUGUUGUGAGUAAGGAGAGUGAUCAGAAGGGCAUUUUUAUU [JMF's solution 84] (Eterna round: R96, puzzle: Same State NG 2)	–	–	–	450 nM	1180 nM	615 nM
AUUUUUAAUGCAGGAUAUGAUUAACAUGAGGAUCACCCAUGUGGUGUUGUGAGUAAGGAGAGUGAUCAGAAGGGCAUUUUUUUC [JMF's solution 91] (Eterna round: R96, puzzle: Same State NG 2)	–	–	–	274 nM	888 nM	502 nM
CAAAAUUAGUAGGAUAGGUACCCAGGAUGACAUGAGGAUCACCCAUGUAAGAGCUUUUUGCUCGUCAUUAACAGUUG [JR_SHM208a_Sub016] (puzzle: Sensor for hsa-mir-208a)	55.7 nM	55.7 nM	68 nM	–	–	–
CAAGGACGGACACAGGAUAUCCUCACCUACACAUGAGGAUCACCCAUGUCAUAAAAGAUGGUGCAGGAGAAGGGUGCGGCGUCUA [Bibesoxe] (puzzle: Same State 2)	10.7 nM	9.62 nM	9.99 nM	–	–	–
CAAGUACAUGAGGAUCACCCAUGUGGAAGAGAUGCAGGAUAUGUGGAGGAAGGGAGUGUAACAGAAGGGCAAGGAG [JR_SS!_Sub020] (puzzle: Same State 1)	39.9 nM	45.6 nM	50.8 nM	–	–	–
CAAUAAAACACAGGAUAUACAGCCAGCCAGGCUGUAGAAGGGUGAGACAUGAGGAUCACCCAUGUACAAGUCGUAGGACUUGGG [Edlaticeen] (Eterna round: R96, puzzle: Same State NG 1)	–	–	–	47.7 nM	1030 nM	163 nM
